From paper PMC2926950 (Bioorganic & medicinal chemistry, 2009)
Ends that are not written are not given here.

T1: hDMX_(1-200) (human, UniProt O15151 1-200)
T1 sequence (looked up): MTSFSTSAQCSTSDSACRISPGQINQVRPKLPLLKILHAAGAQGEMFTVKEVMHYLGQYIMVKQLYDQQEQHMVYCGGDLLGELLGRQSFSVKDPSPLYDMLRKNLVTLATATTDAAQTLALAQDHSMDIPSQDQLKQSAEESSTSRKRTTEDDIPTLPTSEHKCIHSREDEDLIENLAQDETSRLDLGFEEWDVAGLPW


Key:
hDMX_(1-200) [1] = molecular target: T1, hDMX_(1-200); assay: fluorescence polarisation
hDMX_(1-200) [2] = molecular target: T1, hDMX_(1-200); assay: fluorescence polarisation; remark: listed apart in the source

Kd (hDMX_(1-200) [1]) [nM]	IC50 (hDMX_(1-200) [2]) [nM]	Binder
841 ± 28.8		SQETFSDLWKLLPENNV (peptide, UniProt P04637 15-31, looked up, also: fluorescent label (flu), position not given here) [p53AD15−31^flu]
	3870 ± 389	MRPFMDYWEGLN [p53 12/1]
237 ± 21.5		MRPFMDYWEGLN (also: fluorescent label (flu), position not given here) [p53 12/1^flu]
